Patent EP0980526B1 (IMPERIAL CANCER RESEARCH TECHNOLOGY LIMITED, dated 1998)

Target: T1, AAD-ER (acidic activation domain fused to the LBD of the wild-type ER) (human, UniProt P03372 282-595)
T1 construct: range 282-595; Yeast two-hybrid prey; tested with or without 10^-7 M 17-beta-estradiol (E2); also called LBD of the ER; ER LBD
T1 sequence (looked up): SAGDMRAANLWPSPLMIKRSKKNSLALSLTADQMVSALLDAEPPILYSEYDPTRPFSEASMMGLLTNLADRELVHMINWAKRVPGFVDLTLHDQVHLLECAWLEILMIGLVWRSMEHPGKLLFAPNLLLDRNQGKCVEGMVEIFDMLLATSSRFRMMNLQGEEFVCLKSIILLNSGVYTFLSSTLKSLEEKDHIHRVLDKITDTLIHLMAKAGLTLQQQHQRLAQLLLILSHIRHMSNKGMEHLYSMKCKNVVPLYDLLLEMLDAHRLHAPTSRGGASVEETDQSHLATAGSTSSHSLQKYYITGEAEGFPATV
Assay: yeast two-hybrid

B1: DBD alone (other, human, UniProt P03372 176-282, looked up)
chain: MESAKETRYCAVCNDYASGYHYGVWSCEGCKAFFKRSIQGHNDYMCPATNQCTIDKNRRKSCQACRLRKCYEVGMMKGGIRKDRRGGRMLKHKRQRDDGEGRGEVGS
notes: Two-hybrid bait control without a motif
binding result: no binding
